Data from PMC11414716, “Structural insights into polyamine spermidine uptake by the ABC transporter PotD-PotABC” (Science Advances, 2024).

T1: PotD (wild type), spermidine-binding protein (E. coli K12, UniProt P0AFK9 24-348)
T1 construct: expressed from the entire potABCD operon; Hexahistidine tag is called noncleavable; also called PoD wild-type; source: E. coli C41, expressed from the potABCD operon with the tag on PotD; purified (Ni-NTA, Superose 6 SEC); in lysate for the co-purification attempt; not shown: His6, C-terminal, kept
T1 sequence (looked up): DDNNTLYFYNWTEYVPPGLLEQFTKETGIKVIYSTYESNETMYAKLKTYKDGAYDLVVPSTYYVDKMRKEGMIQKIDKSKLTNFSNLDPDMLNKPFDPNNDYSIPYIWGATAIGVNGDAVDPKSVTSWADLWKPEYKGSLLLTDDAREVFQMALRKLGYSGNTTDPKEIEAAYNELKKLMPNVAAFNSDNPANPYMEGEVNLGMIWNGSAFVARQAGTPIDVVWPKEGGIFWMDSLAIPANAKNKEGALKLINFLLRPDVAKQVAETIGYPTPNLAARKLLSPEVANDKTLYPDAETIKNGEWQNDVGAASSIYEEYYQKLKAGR


Key:
[1] = target: T1, PotD (wild type), spermidine-binding …; experiment: cryo-EM structure; PotD-PotABC E173Q complex formed with Spd, ATP and Mg2+, in LMNG; Spd-bound pretranslocation state (3.1 Å) and ATP-bound translocation intermediate state (3 Å; dataset 2 with 3 mM Fos-Choline-8); conditions: both partners purified
[2] = target: the molecule itself; experiment: cryo-EM structure; wild-type PotABC complex reconstituted into MSP1E3D1/asolectin nanodiscs, with ATP, Mg2+ and Spd; map at 3.5 Å
[3] = target: the molecule itself; experiment: cryo-EM structure; PotD-PotABC E173Q complex formed with Spd, ATP and Mg2+, in LMNG; Spd-bound pretranslocation state (3.1 Å) and ATP-bound translocation intermediate state (3 Å; dataset 2 with 3 mM Fos-Choline-8)

Binder	binding result [1]	other results
PotB (natural protein, E. coli K12, UniProt P0AFK4 1-275, looked up, PotB, transmembrane subunit, E. coli K12; the entire potABCD operon was cloned; Subunit of the PotABC complexes, written alone for the pairs within the solved complexes; source: E. coli C41, co-expressed and purified as part of the PotABC complex (Ni-NTA, SEC in LMNG; wild-type complex also in nanodiscs)) MIVTIVGWLVLFVFLPNLMIIGTSFLTRDDASFVKMVFTLDNYTRLLDPLYFEVLLHSLNMALIATLACLVLGYPFAWFLAKLPHKVRPLLLFLLIVPFWTNSLIRIYGLKIFLSTKGYLNEFLLWLGVIDTPIRIMFTPSAVIIGLVYILLPFMVMPLYSSIEKLDKPLLEAARDLGASKLQTFIRIIIPLTMPGIIAGCLLVMLPAMGLFYVSDLMGGAKNLLIGNVIKVQFLNIRDWPFGAATSITLTIVMGLMLLVYWRASRLLNKKVELE	binds	–
PotC (natural protein, E. coli K12, UniProt P0AFK6 1-264, looked up, PotC, transmembrane subunit, E. coli K12; the entire potABCD operon was cloned; Subunit of the PotABC complexes, written alone for the pairs within the solved complexes; That the tag sits on PotC is surmised; source: E. coli C41, co-expressed and purified as part of the PotABC complex (Ni-NTA, SEC in LMNG; wild-type complex also in nanodiscs); not shown: His6 (inferred on PotC: C-terminal tag of …)) MIGRLLRGGFMTAIYAYLYIPIIILIVNSFNSSRFGINWQGFTTKWYSLLMNNDSLLQAAQHSLTMAVFSATFATLIGSLTAVALYRYRFRGKPFVSGMLFVVMMSPDIVMAISLLVLFMLLGIQLGFWSLLFSHITFCLPFVVVTVYSRLKGFDVRMLEAAKDLGASEFTILRKIILPLAMPAVAAGWVLSFTLSMDDVVVSSFVTGPSYEILPLKIYSMVKVGVSPEVNALATILLVLSLVMVIASQLIARDKTKGNTGDVK	binds	–
PotA (wild type) (natural protein, E. coli K12, UniProt P69874 1-378, looked up, PotA, cytosolic ATPase subunit, E. coli K12; the entire potABCD operon was cloned; Subunit of the wild-type PotABC complex solved in nanodiscs) MGQSKKLNKQPSSLSPLVQLAGIRKCFDGKEVIPQLDLTINNGEFLTLLGPSGCGKTTVLRLIAGLETVDSGRIMLDNEDITHVPAENRYVNTVFQSYALFPHMTVFENVAFGLRMQKTPAAEITPRVMEALRMVQLETFAQRKPHQLSGGQQQRVAIARAVVNKPRLLLLDESLSALDYKLRKQMQNELKALQRKLGITFVFVTHDQEEALTMSDRIVVMRDGRIEQDGTPREIYEEPKNLFVAGFIGEINMFNATVIERLDEQRVRANVEGRECNIYVNFAVEPGQKLHVLLRPEDLRVEEINDDNHAEGLIGYVRERNYKGMTLESVVELENGKMVMVSEFFNEDDPDFDHSLDQKMAINWVESWEVVLADEEHK	–	binding result [2]: binds
PotA E173Q (natural protein, E. coli K12, UniProt P69874 1-378, looked up, PotA, cytosolic ATPase subunit (NBD and regulatory domain), E. coli K12; the entire potABCD operon was cloned; Subunit of m1, written alone for the pairs within the solved complexes; source: E. coli C41, co-expressed and purified as part of the PotABC E173Q complex (Ni-NTA, SEC in LMNG)) MGQSKKLNKQPSSLSPLVQLAGIRKCFDGKEVIPQLDLTINNGEFLTLLGPSGCGKTTVLRLIAGLETVDSGRIMLDNEDITHVPAENRYVNTVFQSYALFPHMTVFENVAFGLRMQKTPAAEITPRVMEALRMVQLETFAQRKPHQLSGGQQQRVAIARAVVNKPRLLLLDQSLSALDYKLRKQMQNELKALQRKLGITFVFVTHDQEEALTMSDRIVVMRDGRIEQDGTPREIYEEPKNLFVAGFIGEINMFNATVIERLDEQRVRANVEGRECNIYVNFAVEPGQKLHVLLRPEDLRVEEINDDNHAEGLIGYVRERNYKGMTLESVVELENGKMVMVSEFFNEDDPDFDHSLDQKMAINWVESWEVVLADEEHK	–	stoichiometry N [3]: 2
